Source: PMC4813479 (The Journal of Biological Chemistry, 2015)

Molecular target: full-length human αIIbβ3 on CHO K1 cells (human, UniProt P08514 32-1039; P05106 27-788)
Assay: cell-based or functional assay

- EC50 of LIBS1 epitope exposure on CHO cells expressing αIIbβ3 (flow cytometry, 1 mM Mg2+ and 1 mM Ca2+): 1.43 mM
Binder: AGDV [AGDV tetrapeptide]
